Measured values: a protein production outcome set (Wang et al. 2014)

Assay: label from the status in PepcDB records
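Further: failed if final PepcDB status was selected cloned or expressed and not failed if soluble or beyond.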

WRQRDEAEFTGVDDIPVRFVRFRAQHHDRVVVICPGRIESYVKYAELAYDLFHLGFDVLIIDHRGQGRSGRLLADPHLGHVNRFNDYVDDLAAFWQQEVQPGPWRKRYILAHSMGGAISTLFLQRHPGVCDAIALTAPMFGIVIRMPSFMARQILNWAEAHPRFRDGYAIGTGRWRALPFAINVLTHSRQRYRRNLRFYADDPTIRVGGPTYHWVRESILAGEQVLAGAGDDATPTLLLQAEEERVVDNRMHDRFCELRTAAGHPVEGGRPLVIKGAYHEILFEKDAMRSVALHAIVDFFNRHN
protein production: failed

MKMKLLILAVLPFLTPINMNSQEEKASWVQYVNPLIGTEVWQSGVAVAGHEDPSGYTFPGVTEPFGMTEWTAHTLESKHAGTLHHRVPYWYKHNYISGFMGTHYPSGAVMFDYGAVELMPVVGQLKCRPEERSSSFTHITEKSKPHFYEVMLDDYQVKAQLSATKTSAILQFTYPQSDSAYVVVDAMPSMFTAGAPGYIHIDPVRKEISGKSIQSARGYRETGYFVVRFDKDFDSFGTFNLNNDYPEVIEEKYLFTQKEGKWVNGLKGIYTQDSKGVGHLRSEKIDPVIDFDWDWYKPADDFSFNDYQVTWSGKLKAPSTGEYTLGIQADDGARLYINGELLIDDWKSHSFSYQPTQKKISLEAGKMYDIKLEYYQHEWSSRIKLSWIRPDKKSSTSLLTGNRHLESSTKIGGYIRFKTGKNEVIKAIVGTSFISVEQARINLEREIGAKSMETISAQTEALWNKELSVIDLPGATEQDKIVFYTALYHSFLLPRSLSEDGKYRSPFDGKVHKGISFTDYSIWDTFRATHPLFVLLKPDFAGDLITGLLHAYDEGGWLPKWPNPGYTNCMMGTHSDAIIADAYVKGVRNFDVEKAKKAVLKNAYEKGNHIAWGRLGIMDYERLGYVPVDKYGESVARTMEFAYDDYCLSRFFAEKGEPDLSDKLGKRSKNFRNVLDKETKMVRARKADGSWSNPEDYDISVWSGFNPKGVYNYKKNYTLFVPHDVPELIRFLGGTDSLAVFMDELFDKDIYYVGDEFVMHAPYMYNLCKRPWMTQKRIYDIVNKYYLPTPSGLPGNDDCGQLSSWYIFSAMGFYPMCPASIEYQLGVPCLPGFVLHLPQNRTFTIKTKNFGKGNCYVRAVYLNGKPHRSSVITHSDIINGGEILFELTDKPAYNWFQ
protein production: failed

MARPQDPPRGFFPFGNPFKNLSSKNSVLSSKLLPLLNNFETNLASSISKLVPKEKSDILTVSWMKQAMESLCETHNGIKTLITDLELPVSDWEDKWVDVYLDISVKLLDLCNAFSSELTRLNQGHLLLQFALHNLEANSPQNLSKAQSSLDSWKQHIVSKNPRIENCRAILSSLVQTLNLPKVKNSAKGKVLMRALYGVKVKTLYISGVFAAAFSGSSQNLMYLTVSNELPWAQSFMEVQNTMNAEIKNIFLSDGLTVLKELEAVASGVKKLYPAIQQGSIDPISLQPLKDSVTELSNGIDLVSKEVDCFFKILLSGRDTLLENLRSMGASTLQATSPKKAAGKNYRGF
protein production: failed

MDPRKVNELRAFVKMCKQDPSVLHTEEMRFLREWVESMGGKVPPATQKAKSEENTKEEKPDSKKVEEDLKADEPSSEESDLEIDKEGVIEPDTDAPQEMGDENAEITEEMMDQANDKKVAAIEALNDGELQKAIDLFTDAIKLNPRLAILYAKRASVFVKLQKPNAAIRDCDRAIEINPDSAQPYKWRGKAHRLLGHWEEAAHDLALACKLDYDEDASAMLKEVQPRAQKIAEHRRKYERKREEREIKERIERVKKAREEHERAQREEEARRQSGAQYGSFPGGFPGGMPGNFPGGMPGMGGGMPGMAGMPGLNEILSDPEVLAAMQDPEVMVAFQDVAQNPANMSKYQSNPKVMNLISKLSAKFGGQA
protein production: failed

MANLLSTCTSESGNIQHISPQNAGWEYVGFDVWQLKAGESITLPSDERERCLVLVAGLASVKAADSFFYRIGQRMSPFERIPAYSVYLPHHTEAKVTAETDLELAVCSAPGFGELPVRLISPQEVGVEHRGKGRNQRLVHNILPDSQLADSLLVVEVYTNAGATSSWPAHKHDTAVEGQETYLEETYYHRFNPPQGFCLQRVYTDDRSLDECMAVYNRDVVKVPKGYHPVATIAGYDNYYLNVMAGPLRKWRFTWEENHAWINSPDYPR
protein production: not failed

MIWLQLVVVLAAIFVGARLGGIGLGVMGGLGLGVLTFVFHLQPTSPPIDVLLMIAAVVTAAGVLQAAGGLDYLVSVAERILRSNPDRITFLGPLVTYVFTLFAGTGHVAYSVLPVISEVARETGVRPERPMSISVIASQQAITASPISAATVALLGMLSTGAAGAAFHIELIDILKVCIPSTLLGVLAAAFVANRMGKDLEEDPEYQDRVARGLAAPTGRQALAAADGGEPVRAAAPVTAKIAVGIFLAAALAVVLFGSFPGMRPQWTTASGVTKLGMPHAIEMVMLSAAALMLMVCRVDVSKVATGSVFGAGVQAVIAIFGIAWMGDTFFAGNMEVLGGSIKGMVTAAPWLFAAALFALSVLLYSQAATVRALMPLGIALGIPAPALMAMFPAVNGYFFIPNYPTIVAAINFDRTGTTRIGRWVLNHSFMVPGLISTVVAIATGLVIVRFMF
protein production: failed

MHISIKTLEGKRIKLEVEDSSNTIDLKIHGEPTRELVVDLSPTPDTGAIMMIFIKTLTGRTNTYEVKGSDTIRELKAKHEEKEGIPVEQQRLIFQGRISIKTVKGKSINLEVADSSDTIDLKINGEPTRQLVLRLGPAVLMRIFVSTIKEKTFILEVKGSDTIKKLKSMIHDQGGPPVDQQDLNHLGTKLKNNATISDYNIKPDANLVIMQNGCIC
protein production: failed

MGHHHHHHSHSSFQTMDQMVSNMRNYMQKLERNFGQLSVDPNGHSFCSSSVMTYSKIGDEP
protein production: failed

MRPVGSKYLLEEPLGRGATGTVWRARQRETAGAEAAVAGQPGETVAIKVLKEELASDADIVMRFLRERSVLLRLTHPNIVRVRDLVVEGELLALVMDLIDGPDLHRYLRENGPLTPVAAALLTAQIADALAASHADGVVHRDLKPANVLLKQTGGEMHPMLTDFGIARLADSPGLTRTHEFVGTPAYVAPESAEGRPQTSAVDVYGAGILLYELVTGRPPFGGGSALEVLHQHLSAEPRRPSTVPDPLWTVIERCLRKNPDDRPSAENLARGLRVVAEGIGVHANSAQIGAAENVGALLAPDPAPAQVPGAPDAAYDPNGATSVLPHTSGPAGAADPTAVLPSTGAPDPTAVMPPVPPGQPGAPGQGGPEDPHPWQNQLRAARDRNEQTQVQYLDPNQDPLRRRPQRQVSRPPQQPRQAPQGPPPQQPGYGYPQQQQPQRYATPQPQQPQRYAPPPAPEPQQPRREPRPPRQRSANPMRIPGLGCLKGCLVTVVVLFVAGWLVWELSPLQEWIGTGKGYWDQLTDWFTTVTDWIGDLGGSGGG
protein production: failed

ACKVLYSLGELNERFVPKTLKERVASIADVHFEHWNKYGDSVTATVNKADKSKDRTYKTECPLEFYDALPRVGEICYAYEIFLEPQFESCEYTEHMYLNLQTPRNYAILLRNKLPRLAEMPLFSNQGKLHVRVANAPLEVIIQNSEQLELLH
protein production: failed

LYQGFEKEFGRPLSPIELEMIGQWLNTDHYSPELIRLALREAVLNQAYSLKYIDRILLAWERKNITTKEQVAA
protein production: failed

MEITPKRYWRRWRGYEKLDGSSETTSGRRKGKRVKMDPTRKKRFWRIKIVPKLRILKTASPKKFLVWLRDSYVKMMMRLANSRVVGSSGYGGSGFGSGQMKEYDEKMLVEIYKSILMVQAQGNLVHRDTPNNNLKLPSEPAVVSVVSSVVTC
protein production: failed

MDTNYKMLYEKYEKLKNEFSTYQNFAETQIQRMNGKNTELEKKLDILTNVIEVSKYINSNISDDNLVPMINDMIIGILGVTYSTIYLVEDDEKLIVKASNVMDNYDIIVNPVFSTFSDNRPIVINSKEPLFKEFKNKLKVHSIIGVPITLRDNFRGYIIVEHTLYDFFSHGHIKFISSIANQIAIAIENSFLYKKVKESSIKDPFLGIYNRKHFFDMIEGKVAKDSRRSFAIVMLDIDHFKSFNDSYGHQFGDEVLIQTAKILEQSIGEKDEVARYGGEEIVLYLNDAQSKEKVFKTVDGIRASLSNNSVRHGGIEKRVTASFGISYYPQNGETVEKVVSVADAMLYEAKNSGRNKVVSSL
protein production: failed

MTLIRWNPWQDLNTLQRQLNHLFEEDMLPSTLLERTLTRVPAAELHETAEVIYLKLELPGIDAKDVDLQVTDKAVYISGERKSETKTEDKGVFKSEFQYGKFQRVIPLPARIQNTNVTAEYKDGILNLTLPKAEVEKNKVVKINIESAAGLEHHHHHH
protein production: not failed

MLIVSGCSSSQNNNGSGKSESKDSRVIHDEEGKTTVSGTPKRVVVLELSFLDAVHNLGITPVGIADDNKKDMIKKLVGSSIDYTSVGTRSEPNLEVISSLKPDLIIADAERHKNIYKQLKKIAPTIELKSREATYDETIDSFTTIAKALNKEDEGKEKLAEHKKVINDLKAELPKDENRNIVLGVARADSFQLHTSSSYDGEIFKMLGFTHAVKSDNAYQEVSLEQLSKIDPDILFISANEGKTIVDEWKTNPLWKNLKAVKNGQVYDADRDTWTRFRGIKSSETSAKDVLKKVYNK
protein production: failed

MTVGASQQTSTIALHNDTGMLMSNLNIFKQPNAFYLIFSIEFWERFGFYGMQAILTVYMVKIMGMDESASFVLFGAFSALVYGFVAIGGWIGDKVIGTKRAITLGAIVMMVGYVLLGLSTADHPLVGPTLIYIAMGFITVGNGLFKANPSSLLAKIYPENDPRLDGAFTMYYMAINLGSFFSMIITPLVAIKMGYGMAFGVSAVGLAITVVNFLFCLRMLKGTGSPADLMPVNKMYLVLVAVGSIIASLVCSYLLQNLTLAHGILVVAGLFILGCYFKEAFSMSGIERAKMLVAFILMLQGVVFFVLYFQMPTSLNFFAINNVEHHIFGFDVAPEQFQALNPFWIMIASPILAATYGKLGDKLAMPFKFAFGMALCALSFLVLSWGTLFANEQGIISSNWLIASYAFQSIGELLVSGLGLAMVAQLVPQRMMGFAMGMWFLTSASAAVIAGWVASLTSTPANVSGATESLHIYGEVFAQIGYVTAGIAIVTFMIAPKLTRICRGESEPLELVTQ
protein production: failed

MIKIAVIAGGSFDCLPEPADLYVGVDAGSLRLLDHSLPLDWAIGDFDSVTSEELGQIREMAEQFLQAPAEKDDTDLELALKEIFKAYPQAQVRIYGALGGRMDHMMSNLFLVAEPDLAAYMEQIELVDSQNVVRFRPAGSHRISPIAGMKYISFMPSDQSHLTIRYAKYPLDASNYFFKKCYASNEFIDRDIDIQLDQGYVVLIYSKDKD
protein production: failed

MIAQQFNRARHILRHNLVRPFYQPKFYLESGKLAGFEALLRWYDEDNQIQLPKLIINAFEDYSLASRLSEKMQLNIFKDMASWINQGLQLVPVSINAAPVEFLKDNYAELLLERLNQFEIPYHLIEIEITEHLLDDQGKNFISRALAKLKQNGIRIALDDFGTGHSSLTRLANLPVDCLKIDCDFVQRMEQEKFISALVQSVILMSNNLGIDVVAEGIESQEQLELLKQQGCEVGQGFLFSQALAPENARALLS
protein production: failed

MKDLFSTDSQRYQQARPTYPPSLLQSLLQYIPERELAWDCGAGSGQLTHMLASYFDQVVGTDISQTQLSHAEYYDNISYQLQPAENTTFPDHCFDLITVAQAIHWFDFEAFYAEVRRTIKPSGILAVVGYGLIHVDDLEINAKVQHLYHQTLNGFWDAERHYVDELYQTIPFPFDEIEMPAFQIEAQWTLQQLLQYLNTWSAVQHYILEKNLDPVQQLLSKGRDLQDQVSIQFPVLLRVGRCS
protein production: failed

MQPILWILTLGISLNGVTSVTFLKQFNTSFLDFEIVGVPIIFALTIPLFGSFSSRLEFSNSTIYVVHLLSNRKIIYYFMGTDVIFYAIITFVNVLTVAGLSFILTSEGVNVIGLLAVLPLMLLGSLTSYSLGIIINSLFRNLSSPTSYLFSLIQVILILFSGVYYPLSYLPEYLRIIAFISPYSHLIALIRYILLGYNASDLNALWFYTLPYQVQVVLSISYVIVLGVILFILAGKRLVKGQGMVLL
protein production: failed

MCEKTAGDESGRRISRRAGNGEAGRLRSLSRLFDHFATAVTRWTGSPIAFSGACAAILAWASTGPLFGYSEVWQLVVNTGTTIVTFLMVFLIQQAQNKDSRALHVKLDELLVAVNGADVALAEAENLDDDRLLELADAYAARARRLVEHSTQRQRRDRGAEPEVGAARTRLARRPPGARARRHARLCWWQKQYARQRQGGDT
protein production: failed
